Data from the supplement of paper PMC9170038.

Tested on: MS2 coat protein
Test: apparent KD of MS2 coat protein; designed switch direction (-1 OFF switch, 1 ON switch): 1; higher = weaker reporter binding
How it was run: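 For each design, the apparent KD is the median over clusters of curves fitted to normalised cluster fluorescence. Clusters held RNA switches with common flanks, transcribed on Illumina chips by stalled E. coli RNA polymerase. These were titrated with SNAP-549-labelled MS2 coat protein, doubling from 0.7 or 1.5 nM to 3 µM, without input, with 200 uM small-molecule ligand, or with an oligonucleotide input.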

[1] = Eterna round: R95, input ligand: FMN 200 uM
[2] = Eterna round: R95, input ligand: microRNA oligo, concentration not stated
[3] = Eterna round: R95, input ligand: none
[4] = input ligand: microRNA oligo, concentration not stated

| Sequence | apparent KD of MS2 coat protein [1] | apparent KD of MS2 coat protein [2] | apparent KD of MS2 coat protein [3] | apparent KD of MS2 coat protein (input ligand: FMN 200 uM) | apparent KD of MS2 coat protein [4] | apparent KD of MS2 coat protein (input ligand: none) |
| --- | --- | --- | --- | --- | --- | --- |
| GCUCUACAUGAGGAUCACCCAUGUCCGAACGCGCGAGGAUAUGCAUGGGCGAAAGCUGGUGCAGAAGGCGUGGGAC [2theCorner] (puzzle: Same State 1) | 0.315 µM | 0.202 µM | 0.358 µM | – | – | – |
| GCUCUACAUGAGGAUCACCCAUGUUCGGACGCACGAGGAUAUGCAUGGGCGAAAGCUGGUGCAGAAGGCGUGGGAC [inDCorner] (puzzle: Same State 1) | – | 0.15 µM | – | – | – | – |
| GCUGCAAGGGCAGGAUAUGGGUCCAGAGCGCAAGUGCGCCCUGGUACAUGAGGAUCACCCAUGUCCCAGAAGGGCCCAAGCAGC [Vetierribi] (Eterna round: R96, puzzle: Same State NG 2) | – | – | – | 0.0129 µM | 0.0689 µM | 0.0876 µM |
| GCUGCACAUGAGGAUCACCCAUGUCUUCGGAGUCGAGGAUAUGGUCACUGUAAACAGUGGCCAGAAGGCGAGUAGC [SS1 - Son of Teenbexe v6] (puzzle: Same State 1) | 0.0308 µM | 0.0378 µM | 0.0323 µM | – | – | – |
| GCUGGAAACCACAUGAGGAUCACCCAUGUUCCGGAAACGGCACAGGAUAUCUGUCCGAAAAGGUCAGAGAAGGGUGUAACCAGC [Fiskers NG3ss - 86] (Eterna round: R96, puzzle: Same State NG 3) | – | – | – | 0.19 µM | 0.338 µM | 0.245 µM |
| GGAAGGAGGUCAGGAUAUGAACGGAAGGUACAUGAGGAUCACCCAUGUUACGGAGGAAACCCACGUUAGAAGGGACAAGGAAGG [AK SSNG2-V2-4] (Eterna round: R96, puzzle: Same State NG 2) | – | – | – | 0.0196 µM | 0.0156 µM | 0.0305 µM |
| GGAAUAUGAUGUUACAUGAGGAUCACCCAUGUAGUGAUAACUAAGGAUAUUUGAAAGGGAGGAGAAGAGAAGGUAGGAUCAUAA [AK SSNG3-V2-11.1] (Eterna round: R96, puzzle: Same State NG 3) | – | – | – | 0.0607 µM | 0.0476 µM | 0.0637 µM |
| GGAAUGUGAUGUUACAUGAGGAUCACCCAUGUAGUGACAACUAAGGAUAUCUGAAAGGAAGGAGAGGAGAAGGUAGGAUCACAA [AK SSNG3-V2-16] (Eterna round: R96, puzzle: Same State NG 3) | – | – | – | 0.0152 µM | 0.0241 µM | 0.0408 µM |
| GGACGUCAACUCAACAAUUAAACAUGAGGAUCACCCAUGUCACAGGAUAUGGAUCCUAAUUGGAUCCAGAAGGGUGAGACGUCC [Fiskers NG3ss - 42] (Eterna round: R96, puzzle: Same State NG 3) | – | – | – | 0.0959 µM | 0.1 µM | 0.0792 µM |
| GGAGAACAUGAGGAUCACCCAUGUGAGAGGGAUGUAGGAUAUGUGAGGAGUAAAGGAGGGACAGAAGGACAGAGAU [JR_SS!_Sub068] (Eterna round: R96, puzzle: Same State 1) | – | – | – | – | 0.0304 µM | – |
| GGAGAACAUGAGGAUCACCCAUGUGAGAGGGAUGUAGGAUAUGUGAGGAGUAAAGGAGGGACAGAAGGACAGAGAU [JR_SS!_Sub068] (puzzle: Same State 1) | 0.0374 µM | 0.0405 µM | 0.0477 µM | – | – | – |
| GGAGCCAAGGCAGGAUAUUCAUAUUAAAUAACAUGAGGAUCACCCAUGUAGGCCAGAAGGCCUUGGGAGAAGGGCCAUGGCUCG [Xeonanis - 13 mod21] (Eterna round: R96, puzzle: Same State NG 2) | – | – | – | 0.0211 µM | 0.109 µM | 0.189 µM |
| GGAGCCGGCACCGAGGAUAUUCAUAUUAAAACAUGAGGAUCACCCAUGUAGGCCAGAAGGCCUUGGGAGAAGGCGGAUCGGCUCA [Xeonanis - 6] (puzzle: Same State 2) | 0.0295 µM | 0.376 µM | 0.491 µM | – | – | – |
| GGAGCCGGCACUGAGGAUAUUCAUAUUAAAACAUGAGGAUCACCCAUGUAGGCCAGAAGGCCUUGGGAGAAGGCAGGUCGGCCCG [Bibimaor] (Eterna round: R96, puzzle: Same State 2) | – | – | – | 0.0217 µM | 0.25 µM | 0.311 µM |
| GGAGCCGGCACUGAGGAUAUUCAUAUUAAAACAUGAGGAUCACCCAUGUGGGCCAGAAGGCCUUGGGAGAAGGCAGGUCGACUCG [Diqureveri - 3] (puzzle: Same State 2) | 0.0185 µM | 0.145 µM | 0.243 µM | – | – | – |
| GGAGCCGGCACUGAGGAUAUUCAUAUUUAAACAUGAGGAUCACCCAUGUAGGCCAGAAGGCCUUGGGAGAAGGCAGGUCGGCUCG [salish99_ss2_r3_076] (puzzle: Same State 2) | 0.026 µM | 0.216 µM | 0.493 µM | – | – | – |

| Sequence | apparent KD of MS2 coat protein [1] | apparent KD of MS2 coat protein [2] | apparent KD of MS2 coat protein [3] | apparent KD of MS2 coat protein (input ligand: FMN 200 uM) | apparent KD of MS2 coat protein [4] | apparent KD of MS2 coat protein (input ligand: none) |
| --- | --- | --- | --- | --- | --- | --- |
| GGAGCCGGCCUAGGAUAUUUCAUAAACAAACAUGAGGAUCACCCAUGUAGGCCAGAAGGCCUUGGGAAGAAGGAGGUCGGCUCC [Loop Effect - C27] (Eterna round: R96, puzzle: Same State NG 2) | – | – | – | 0.0221 µM | 0.0322 µM | 0.0452 µM |
| GGAGCCGGCCUAGGAUAUUUCAUAAAUAAACAUGAGGAUCACCCAUGUAGGCCAGAAGGCCUUGGGAAGAAGGAGGUCGGCUCC [Loop Effect - U27] (Eterna round: R96, puzzle: Same State NG 2) | – | – | – | 0.00958 µM | 0.0302 µM | 0.0339 µM |
| GGAGCCGGCCUAGGAUAUUUCAUAAUUAAACAUGAGGAUCACCCAUGUAGGCCAGAAGGCCUUGGGAAGAAGGAGGUCGGCUCC [Loop Effect - U26,U27] (Eterna round: R96, puzzle: Same State NG 2) | – | – | – | 0.0125 µM | 0.039 µM | 0.0823 µM |
| GGAGCCGGCCUAGGAUAUUUCAUUAAAAAACAUGAGGAUCACCCAUGUAGGCCAGAAGGCCUUGGGAAGAAGGAGGUCGGCUCC [Loop Effect - U24] (Eterna round: R96, puzzle: Same State NG 2) | – | – | – | 0.0127 µM | 0.0162 µM | 0.0246 µM |
| GGAGCCGGCCUAGGAUAUUUCAUUAAAUAACAUGAGGAUCACCCAUGUAGGCCAGAAGGCCUUGGGAAGAAGGAGGUCGGCUCC [Loop Effect - U24,U28] (Eterna round: R96, puzzle: Same State NG 2) | – | – | – | 0.0122 µM | 0.035 µM | 0.0463 µM |
| GGAGCCGGUACUGAGGAUAUUCAUAUUAAAACAUGAGGAUCACCCAUGUAGGCCAGAAGGCCUUGGGAGAAGGCGGAUCGGCUCC [Biseusra - 2] (puzzle: Same State 2) | 0.022 µM | 0.18 µM | 0.417 µM | – | – | – |
| GGAGGACAUGAGGAUCACCCAUGUGGAUGGGCGCUAGGAUAUGCGAGAGGGAAGAGUGGAGCAGAAGGAGUGGGUU [JR_SS1_Sub044] (puzzle: Same State 1) | – | 0.04 µM | – | – | – | – |
| GGAUGAUGGACAGGAUAUUGAUUGUAAUGGUGUCAAGAAGGGUCUUUGAUUUAAACGACCAGUUACAUGAGGAUCACCCAUGUU [JR_SSNG1_Sub031] (Eterna round: R96, puzzle: Same State NG 1) | – | – | – | 0.133 µM | 0.107 µM | 0.205 µM |
| GGCAAUCGCAUUCGAUUGCCUGAGCAUGUACAUGAGGAUCACCCAUGUCAUGUACAGGCUUUUUGCUCGUACUUAUA (puzzle: Sensor for hsa-mir-208a) | 0.0916 µM | 0.0149 µM | 0.135 µM | – | – | – |
| GGCCUGAGUCAAGGAUAUGCUACCGUUUCGGUAGCAGAAGGUGAUCACAUGAGGAUCACCCAUGUUUACGCGAAGACGCGCGCC (Eterna round: R96, puzzle: Same State NG 1) | – | – | – | 0.128 µM | 0.0567 µM | 0.0357 µM |
| GGCUAUCGCAUUCGAUAGCCUGAGCAUGUACAUGAGGAUCACCCAUGUCAUGUACAGGCUUUUUGCUCGUACUUAUA (puzzle: Sensor for hsa-mir-208a) | 0.071 µM | 0.0136 µM | 0.0934 µM | – | – | – |
| GGGAGACAUGAGGAUCACCCAUGUGAGAAGAGGCGAGGAUAUCGAAAAAAAAAAAAAAAACGAGAAGGCGCGAGAU [salish99-SS1-004] (Eterna round: R96, puzzle: Same State 1) | – | – | – | 0.0435 µM | 0.133 µM | 0.115 µM |
| GGGCCAACGAGCGAGGAUAUGGCCUCGGACACAUGAGGAUCACCCAUGUCGAAAAGGUCAGGAGGCUAGAAGGCGUAAAAUGCCA [Tiqusoor] (puzzle: Same State 2) | 0.0117 µM | 0.0108 µM | 0.0131 µM | – | – | – |
| GGUAGGUUACUACCAAUCACAUGAGGAUCACCCAUGUUUUGGGAGGAUAUGGUACCUAUUUGGUACCAGAAGGCCUUAUUAAUU [Fiskers NG3ss - 12] (Eterna round: R96, puzzle: Same State NG 3) | – | – | – | 0.0636 µM | 0.0362 µM | 0.0653 µM |
| GGUCCAGCCUGAGCUGGACAAAAGCAUGUACAUGAGGAUCACCCAUGUCAUGUACAAGCUUUUUGCUCGUCUUAAUU [Mat - hsa-mir-208a - 87] (puzzle: Sensor for hsa-mir-208a) | 0.514 µM | 0.0151 µM | 0.762 µM | – | – | – |
| GGUCCAGCCUGAGCUGGACAAAAGCAUGUACAUGAGGAUCACCCAUGUUCAUGUACAAGCUUUUUGCUCGUCUUAAC [salish99_208a_r3_038] (puzzle: Sensor for hsa-mir-208a) | 0.53 µM | 0.0169 µM | 0.647 µM | – | – | – |
